Experimental data: patent US20200223889A1 (Novo Nordisk, published 2020)
Positions of bridges follow the written chain, without caps; N, C: chain ends. Non-standard residues stand in square brackets, D forms with d. Hyp = O=C(O)[C@@H]1C[C@@H](O)CN1; Pen = CC(C)(S)[C@H](N)C(=O)O; Orn = NCCC[C@H](N)C(=O)O; Thz = O=C(O)[C@@H]1CSCN1; Dab = NCC[C@H](N)C(=O)O; Aib = CC(C)(N)C(=O)O

Tests used:
[1] = molecular target: human melanocortin 1 receptor (human, UniProt Q01726 1-317); experiment: cell-based or functional assay
[2] = molecular target: human melanocortin 4 receptor (human, UniProt P32245 1-332); experiment: cell-based or functional assay
human melanocortin 4 receptor, sequence (P32245 whole entry): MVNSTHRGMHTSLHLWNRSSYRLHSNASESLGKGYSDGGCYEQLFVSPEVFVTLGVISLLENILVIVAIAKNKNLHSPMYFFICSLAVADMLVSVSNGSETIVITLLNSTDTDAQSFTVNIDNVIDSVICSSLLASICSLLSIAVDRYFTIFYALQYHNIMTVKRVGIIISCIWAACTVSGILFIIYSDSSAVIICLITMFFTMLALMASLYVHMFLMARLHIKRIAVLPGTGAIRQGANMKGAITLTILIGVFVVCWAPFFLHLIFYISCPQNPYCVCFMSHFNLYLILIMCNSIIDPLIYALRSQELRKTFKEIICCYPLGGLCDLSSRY

human melanocortin 1 receptor, sequence (Q01726 whole entry): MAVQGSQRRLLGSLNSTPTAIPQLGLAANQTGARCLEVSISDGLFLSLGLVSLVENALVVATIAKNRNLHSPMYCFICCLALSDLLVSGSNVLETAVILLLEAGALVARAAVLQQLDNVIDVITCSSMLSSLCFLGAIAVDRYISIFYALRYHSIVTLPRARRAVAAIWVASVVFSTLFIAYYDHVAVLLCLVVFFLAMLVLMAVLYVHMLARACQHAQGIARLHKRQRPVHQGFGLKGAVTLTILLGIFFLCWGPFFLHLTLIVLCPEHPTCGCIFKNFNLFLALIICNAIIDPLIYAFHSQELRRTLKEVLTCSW

Binder	MC1R cAMP EC50 [1] [nM]	MC4R cAMP EC50 [2] [nM]
cyclo(C[Thz]H[dF]HW[Pen]KKAAW) (disulfide 1-7; SMILES C[C@@H]1NC(=O)[C@H](C)NC(=O)[C@H](CCCCN)NC(=O)[C@H](CCCCN)NC(=O)[C@H]2NC(=O)[C@H](Cc3c[nH]c4ccccc34)NC(=O)[C@H](Cc3c[nH]cn3)NC(=O)[C@@H](Cc3ccccc3)NC(=O)[C@H](Cc3c[nH]cn3)NC(=O)[C@@H]3CSCN3C(=O)[C@H](CSSC2(C)C)NC(=O)[C@H](Cc2c[nH]c3ccccc23)NC1=O) [Chem. 117]	168	0.2
CXHFXWCXHFXW (Aib 2, 8; D-Phe 4, 10; AGP 5, 11; disulphide Cys1-Cys7; head-to-tail amide Cys1-Trp12) [Chem. 43]	46.9	
cyclo(C[Thz]H[dF]HWCARERR) (disulfide 1-7; SMILES C[C@@H]1NC(=O)[C@@H]2CSSC[C@H](NC(=O)[C@H](CCCNC(=N)N)NC(=O)[C@H](CCCNC(=N)N)NC(=O)[C@H](CCC(=O)O)NC(=O)[C@H](CCCNC(=N)N)NC1=O)C(=O)N1CSC[C@H]1C(=O)N[C@@H](Cc1c[nH]cn1)C(=O)N[C@H](Cc1ccccc1)C(=O)N[C@@H](Cc1c[nH]cn1)C(=O)N[C@@H](Cc1c[nH]c3ccccc13)C(=O)N2) [Chem. 113]	42.2	0.02
cyclo(C[dK]H[dF]HWC[dK]H[dF]HW) (disulfide 1-7; SMILES NCCCC[C@H]1NC(=O)[C@@H]2CSSC[C@H](NC(=O)[C@H](Cc3c[nH]c4ccccc34)NC(=O)[C@H](Cc3c[nH]cn3)NC(=O)[C@@H](Cc3ccccc3)NC(=O)[C@H](Cc3c[nH]cn3)NC1=O)C(=O)N[C@H](CCCCN)C(=O)N[C@@H](Cc1c[nH]cn1)C(=O)N[C@H](Cc1ccccc1)C(=O)N[C@@H](Cc1c[nH]cn1)C(=O)N[C@@H](Cc1c[nH]c3ccccc13)C(=O)N2) [Chem. 86]	147	
CAHFXWCAHFXW (D-Phe 4, 10; Arg(NO2) 5, 11; disulphide Cys1-Cys7; head-to-tail amide Cys1-Trp12) [Chem. 21]	> 4	
cyclo(C[Aib]H[dF][Dab]WC[Aib]H[dF][Dab]W) (disulfide 1-7; SMILES CC1(C)NC(=O)[C@@H]2CSSC[C@H](NC(=O)[C@H](Cc3c[nH]c4ccccc34)NC(=O)[C@H](CCN)NC(=O)[C@@H](Cc3ccccc3)NC(=O)[C@H](Cc3c[nH]cn3)NC1=O)C(=O)NC(C)(C)C(=O)N[C@@H](Cc1c[nH]cn1)C(=O)N[C@H](Cc1ccccc1)C(=O)N[C@@H](CCN)C(=O)N[C@@H](Cc1c[nH]c3ccccc13)C(=O)N2) [Chem. 46]	> 5.5	
cyclo(C[dV]H[dF]RWC[dV]H[dF]RW) (disulfide 1-7; SMILES CC(C)[C@H]1NC(=O)[C@@H]2CSSC[C@H](NC(=O)[C@H](Cc3c[nH]c4ccccc34)NC(=O)[C@H](CCCNC(=N)N)NC(=O)[C@@H](Cc3ccccc3)NC(=O)[C@H](Cc3c[nH]cn3)NC1=O)C(=O)N[C@H](C(C)C)C(=O)N[C@@H](Cc1c[nH]cn1)C(=O)N[C@H](Cc1ccccc1)C(=O)N[C@@H](CCCNC(=N)N)C(=O)N[C@@H](Cc1c[nH]c3ccccc13)C(=O)N2) [Chem. 34]	2.6	
cyclo(C[Aib][Hyp][dF]RWC[Aib][Hyp][dF]RW) (disulfide 1-7; SMILES CC1(C)NC(=O)[C@@H]2CSSC[C@H](NC(=O)[C@H](Cc3c[nH]c4ccccc34)NC(=O)[C@H](CCCNC(=N)N)NC(=O)[C@@H](Cc3ccccc3)NC(=O)[C@@H]3C[C@@H](O)CN3C1=O)C(=O)NC(C)(C)C(=O)N1C[C@H](O)C[C@H]1C(=O)N[C@H](Cc1ccccc1)C(=O)N[C@@H](CCCNC(=N)N)C(=O)N[C@@H](Cc1c[nH]c3ccccc13)C(=O)N2) [Chem. 38]	> 3.7	
cyclo(C[dP]H[dF]RWC[dP]H[dF]RW) (disulfide 1-7; SMILES N=C(N)NCCC[C@@H]1NC(=O)[C@@H](Cc2ccccc2)NC(=O)[C@H](Cc2c[nH]cn2)NC(=O)[C@H]2CCCN2C(=O)[C@@H]2CSSC[C@H](NC(=O)[C@H](Cc3c[nH]c4ccccc34)NC1=O)C(=O)N1CCC[C@@H]1C(=O)N[C@@H](Cc1c[nH]cn1)C(=O)N[C@H](Cc1ccccc1)C(=O)N[C@@H](CCCNC(=N)N)C(=O)N[C@@H](Cc1c[nH]c3ccccc13)C(=O)N2) [Chem. 33]	> 1	
cyclo(CH[dF]RW[dA]CH[dF]RW[dA]) (disulfide 1-7; SMILES C[C@H]1NC(=O)[C@H](Cc2c[nH]c3ccccc23)NC(=O)[C@H](CCCNC(=N)N)NC(=O)[C@@H](Cc2ccccc2)NC(=O)[C@H](Cc2c[nH]cn2)NC(=O)[C@@H]2CSSC[C@H](NC1=O)C(=O)N[C@@H](Cc1c[nH]cn1)C(=O)N[C@H](Cc1ccccc1)C(=O)N[C@@H](CCCNC(=N)N)C(=O)N[C@@H](Cc1c[nH]c3ccccc13)C(=O)N[C@H](C)C(=O)N2) [Chem. 6]	2.35	
cyclo(C[Thz]H[dF]HWC[Orn][Orn]AAW) (disulfide 1-7; SMILES C[C@@H]1NC(=O)[C@H](C)NC(=O)[C@H](CCCN)NC(=O)[C@H](CCCN)NC(=O)[C@@H]2CSSC[C@H](NC(=O)[C@H](Cc3c[nH]c4ccccc34)NC1=O)C(=O)N1CSC[C@H]1C(=O)N[C@@H](Cc1c[nH]cn1)C(=O)N[C@H](Cc1ccccc1)C(=O)N[C@@H](Cc1c[nH]cn1)C(=O)N[C@@H](Cc1c[nH]c3ccccc13)C(=O)N2) [Chem. 116]	231	0.12
cyclo(C[Thz]H[dF]HWCKA[dK]AW) (disulfide 1-7; SMILES C[C@@H]1NC(=O)[C@H](CCCCN)NC(=O)[C@@H]2CSSC[C@H](NC(=O)[C@H](Cc3c[nH]c4ccccc34)NC(=O)[C@H](C)NC(=O)[C@@H](CCCCN)NC1=O)C(=O)N1CSC[C@H]1C(=O)N[C@@H](Cc1c[nH]cn1)C(=O)N[C@H](Cc1ccccc1)C(=O)N[C@@H](Cc1c[nH]cn1)C(=O)N[C@@H](Cc1c[nH]c3ccccc13)C(=O)N2) [Chem. 114]	114	0.04
cyclo(C[Thz]H[dF]HWCK[Orn]AAW) (disulfide 1-7; SMILES C[C@@H]1NC(=O)[C@H](C)NC(=O)[C@H](CCCN)NC(=O)[C@H](CCCCN)NC(=O)[C@@H]2CSSC[C@H](NC(=O)[C@H](Cc3c[nH]c4ccccc34)NC1=O)C(=O)N1CSC[C@H]1C(=O)N[C@@H](Cc1c[nH]cn1)C(=O)N[C@H](Cc1ccccc1)C(=O)N[C@@H](Cc1c[nH]cn1)C(=O)N[C@@H](Cc1c[nH]c3ccccc13)C(=O)N2) [Chem. 115]	134	0.1
CXHFXWCXHFXW (Aib 2, 8; D-Phe 4, 10; Cit 5, 11; disulphide Cys1-Cys7; head-to-tail amide Cys1-Trp12) [Chem. 41]	137	
